Results reported in US20200317768A1 (published 2020).
Where a chain is given by its changes, count along the chain named.

Tests used:
Test in all cases: SPR (BIACORE); KD of SG1 / KD of variant;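 further: relative to parent M103205H795-SG1 carrying the SG1 human heavy chain constant region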
[1] = molecular target: T1, cynomolgus monkey FcγRIIb extracellular domain with C-terminal His-tag (cynomolgus monkey)
T1 construct: also called cyno FcgRIIb; cynoFcγRIIb
T1 chain: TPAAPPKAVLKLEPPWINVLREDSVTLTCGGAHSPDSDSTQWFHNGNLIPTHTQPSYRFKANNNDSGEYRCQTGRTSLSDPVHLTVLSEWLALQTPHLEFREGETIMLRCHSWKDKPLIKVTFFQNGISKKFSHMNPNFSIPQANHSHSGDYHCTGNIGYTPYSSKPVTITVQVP

[2] = molecular target: T2, human FcγRIIaR extracellular domain with C-terminal His-tag (human, UniProt P12318 34-217)
T2 construct: also called human FcgRIIaR; FcγRIIa (type R)
T2 chain: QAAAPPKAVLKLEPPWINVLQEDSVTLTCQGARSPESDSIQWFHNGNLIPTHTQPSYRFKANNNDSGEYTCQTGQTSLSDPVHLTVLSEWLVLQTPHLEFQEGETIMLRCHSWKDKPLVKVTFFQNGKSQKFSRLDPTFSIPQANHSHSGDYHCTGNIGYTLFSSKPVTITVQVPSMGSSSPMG

[3] = molecular target: T3, human FcγRIIb extracellular domain with C-terminal His-tag (human, UniProt P31994 43-217)
T3 construct: also called human FcgRIIb
T3 sequence: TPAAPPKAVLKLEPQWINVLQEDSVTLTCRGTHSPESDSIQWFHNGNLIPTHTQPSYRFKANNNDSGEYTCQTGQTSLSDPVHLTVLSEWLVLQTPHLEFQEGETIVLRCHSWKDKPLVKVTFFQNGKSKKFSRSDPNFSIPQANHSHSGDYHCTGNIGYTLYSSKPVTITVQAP

[4] = molecular target: T4, cynomolgus monkey FcγRIIIaS extracellular domain with C-terminal His-tag (cynomolgus monkey, UniProt Q8SPW2 21-206 at identity 1.00))
T4 construct: also called cyno FcgRIIIaS; cynoFcγRIIIaS
T4 chain: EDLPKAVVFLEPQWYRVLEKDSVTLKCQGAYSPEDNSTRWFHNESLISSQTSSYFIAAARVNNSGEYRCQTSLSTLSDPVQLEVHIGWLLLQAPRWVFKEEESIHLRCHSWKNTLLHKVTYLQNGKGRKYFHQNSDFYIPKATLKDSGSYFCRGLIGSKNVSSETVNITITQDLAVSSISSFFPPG

[5] = molecular target: T5, human FcγRIIIaV extracellular domain with C-terminal His-tag (human, UniProt P08637 17-208)
T5 construct: also called human FcgRIIIaV

[6] = molecular target: T6, cynomolgus monkey FcγRIIa3 extracellular domain with C-terminal His-tag (cynomolgus monkey)
T6 construct: also called cyno FcgRIIa3; cynoFcγRIIa3
T6 chain: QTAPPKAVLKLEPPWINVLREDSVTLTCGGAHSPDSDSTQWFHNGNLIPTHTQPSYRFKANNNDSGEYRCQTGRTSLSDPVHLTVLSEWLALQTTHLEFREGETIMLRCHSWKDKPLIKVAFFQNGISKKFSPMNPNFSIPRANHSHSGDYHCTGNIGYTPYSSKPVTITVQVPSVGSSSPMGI

[7] = molecular target: T7, cynomolgus monkey FcγRIIa1 extracellular domain with C-terminal His-tag (cynomolgus monkey)
T7 construct: also called cyno FcgRIIa1; cynoFcγRIIa1
T7 chain: T6 chain with T95P, A121T, S128A, P133H, N135D

[8] = molecular target: T8, cynomolgus monkey FcγRIIa2 extracellular domain with C-terminal His-tag (cynomolgus monkey)
T8 construct: also called cyno FcgRIIa2; cynoFcγRIIa2
T8 chain: T6 chain with I127K, K130N, P133H, R142Q

Measured: KD fold (SG1 = 1)

T5 sequence (P08637 17-208 F176V): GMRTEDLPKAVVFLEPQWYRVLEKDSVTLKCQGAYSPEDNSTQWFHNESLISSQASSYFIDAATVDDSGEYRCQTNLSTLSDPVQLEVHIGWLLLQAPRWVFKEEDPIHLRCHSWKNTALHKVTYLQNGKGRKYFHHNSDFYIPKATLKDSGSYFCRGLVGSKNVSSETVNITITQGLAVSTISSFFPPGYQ

B1: MS_M103205H795-SG1/M103202L889-SK1 (antibody, human IgG1, kappa)
heavy: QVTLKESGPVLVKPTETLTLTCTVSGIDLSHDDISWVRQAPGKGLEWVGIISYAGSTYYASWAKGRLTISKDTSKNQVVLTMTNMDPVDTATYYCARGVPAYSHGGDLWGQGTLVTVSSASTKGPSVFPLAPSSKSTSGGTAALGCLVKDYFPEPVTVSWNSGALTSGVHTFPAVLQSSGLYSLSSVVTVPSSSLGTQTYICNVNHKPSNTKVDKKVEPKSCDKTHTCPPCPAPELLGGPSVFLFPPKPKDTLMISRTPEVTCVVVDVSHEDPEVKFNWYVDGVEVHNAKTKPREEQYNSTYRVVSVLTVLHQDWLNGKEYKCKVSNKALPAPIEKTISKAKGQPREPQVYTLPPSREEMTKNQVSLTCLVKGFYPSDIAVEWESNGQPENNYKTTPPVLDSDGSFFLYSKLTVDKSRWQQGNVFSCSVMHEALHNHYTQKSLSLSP
light: DIVMTQSPATLSLSPGERATLSCTSSQSVYHANWLSWFQQKPGQPPKLLIYWASTLAYGVPSRFSGSGSGTDFTLTISSLQPEDAATYYCAGGYGGGRYAFGQGTKVEIKRTVAAPSVFIFPPSDEQLKSGTASVVCLLNNFYPREAKVQWKVDNALQSGNSQESVTEQDSKDSTYSLSSTLTLSKADYEKHKVYACEVTHQGLSSPVTKSFNRGEC
notes: Parent antibody of the Fc variants; also called MS1032LO06-SG1
1 fold: all assays above
